Series [1] has as its system SBS 26334 ZFN (engineered). The series can be described thus: cell_activity. To be noted: Cel-I indels, pair 26323/26334, K562, no donor.
Series [2] relates to SBS 26323 ZFN (engineered). The series can be described thus: cell_activity. To be noted: Cel-I indels, pair 26323/26334, K562, no donor.

Where only a bound is given, the exact number is not on record here.

With “AACAGGTAAGCTCCATTGTGCTTATATC (double strand) [SNCA site 36 (25358/26334)]”, the activity in series [1] was less than 45%.

With “CACACCATGCACCACTCCCTCCTTGGTT (double strand) [SNCA site 37 (26323/26327/26331)]”, in series [2], the activity was less than 45%.

(Values after patent US20120192301.)
